Assay results from patent US20150267232A1, “IN VIVO AND IN VITRO CARBENE INSERTION AND NITRENE TRANSFER REACTIONS CATALYZED BY HEME ENZYMES” (California Institute of Technology, priority 2012, published 2015).

Columns and labels:
[1] = Small-scale anaerobic C—H amination with purified enzymes, azide 1; assay type: biochemical
Procedure: Activities are presented in TTN. […] Yields and enantioselectivies determined by HPLC analysis. * (S−R)/(S+R). nd=not determined.
Enzymes used as purified catalysts were expressed as previously described (Lewis, J. C. et al., Proc. Natl. Acad. Sci. U.S.A. 106, 16550-16555 (2009)), and were purified by anion-exchange chromatography (for holoenzymes) or Ni-NTA chromatography (for isolated heme domains). Concentrations of P450 or P411 enzymes were determined as previously reported (Omura, T. & Sato, R., J. Biol. Chem. 239, 2370-2378 (1964); Vatsis, K. P. et al., J. Inorg. Biochem. 91, 542-553 (2002)). Small-scale reactions (400 μL) were conducted in 2 mL crimp vials containing degassed buffer (0.1 M potassium phosphate pH 8.0), enzyme (0.1-0.5% catalyst loading) and oxygen depletion system (10× stock solution containing 14,000 U/mL catalase, 1,000 U/mL glucose oxidase dissolved in 0.1 M KPi pH 8.0). Enzyme (P450 or P411) solution and oxygen depletion mixture were added to the vial with a small stir bar before crimp-sealing. […] Reactions were stirred at room temperature for 24 h under positive argon pressure.
Small-scale reactions (400 μL) were conducted in 2 mL crimp vials (Agilent Technologies, San Diego, Calif.) containing buffer (0.1 M potassium phosphate pH 8.0), enzyme (0.1-0.5% catalyst loading) and oxygen depletion system (10× stock solution containing 14,000 U/mL catalase, 1,000 U/mL glucose oxidase dissolved in 0.1 M KPi pH 8.0). Enzyme (P450 or P411) solution and oxygen depletion mixture were added to the vial with a small stir bar before crimp-sealing. […] In the meantime, the headspace of the sealed 2 mL reaction vial with the P450 solution was made anaerobic by flushing argon over the protein solution (with no bubbling). The buffer/reductant/glucose solution (270 μL) was syringed into the reaction vial with continuous argon purge of the vial headspace. An arylsulfonyl azide solution in DMSO (10 μL, 80 mM) was added to the reaction vial via a glass syringe, and the reaction was left stirring for 24 h at room temperature under positive argon pressure. […] Reactions were quenched by adding 30 μL 3 M HCl under argon. To the vials were then added acetonitrile (430 uL) and internal standard (o-toluenesulfonamide 10 mM in 50% acetonitrile 50% water, 1 mM final concentration). This mixture was then transferred to a microcentrifuge tube, and centrifuged at 17,000×g for 10 minutes. A portion (20 μL) of the supernatant was then analyzed by HPLC. For LC-MS analysis, the quenched reaction mixture was extracted twice with ethyl acetate (2×350 μL), dried under a light argon stream and resuspended in 50% water-acetonitrile (100 μL). For chiral HPLC the reactions were extracted as above with ethyl acetate, dried and resuspended in DMSO (100 μL) and then C18 purified as described above. The C18 purified material was dried, and resuspended in acetonitrile, and then injected onto the chiral HPLC system for analysis. Sultam formation was quantified comparison of integrated peak areas of internal standard and sultam at 220 nm to a calibration curve made using synthetically produced sultam and internal standard.
Purified enzymes were screened for activity in small scale reactions (400 μL) under anaerobic conditions as described above. Reactions were carried out using 0.5% mol of enzyme (10 μM) with respect to the triethylsulfonyl azide substrate 1 (2 mM). Standard reaction conditions described above were employed. Diethyl benzosultam product 3 (FIG. 18) was analyzed and quantified by reversed-phase HPLC (see above).
Small-scale reactions (400 μL total volume) were set up and worked up. Control reactions were performed with both the holoenzyme (BM3 with covalently linked reductase domain) and the isolated heme domain. […] Reactions of the complete system with heme domain (CS heme) included 2 mM Na2S2O4 rather than NADPH unless otherwise indicated in the table. […]

[2] = Whole-cell C—H amination of azide 1; assay type: cell-based, E. coli BL21(DE3); conditions: intact E. coli cells
Procedure: Reaction conditions were as follows: 2 mM azide 1, 25 mM glucose, E. coli BL21(DE3) cells in M9-N minimal medium (OD600=30), 2.5% DMSO, oxygen depletion system (100 U ml^−1 glucose oxidase, 1400 U ml^−1 catalase) reacted for 24 hours under anaerobic conditions at 298 K. Yields determined by HPLC quantification.
(§1) Whole cell reactions used E. coli BL21(DE3) cells containing P450 or P411 catalysts, which were expressed and prepared as described elsewhere (Coelho, P. S. et al., Highly efficient carbene transfer to olefins catalyzed in vivo. Submitted (2013)). Following expression, cells were resuspended to an OD600 of 30 in M9 salts lacking NH4Cl (M9-N), and then degassed by sparging with argon in a sealed 6 mL crimp vial for at least 0.5 h. Separately, glucose (250 mM dissolved in 1×M9-N, 40 μL, or multiples thereof) was degassed by sparging with argon for at least five minutes. The oxygen quenching mixture was added to sealed 2 mL crimp vials containing stir bars and the headspace of the vials was purged with argon for five minutes at which time glucose, and then cells were added by syringe. Substrate (80 mM arylsulfonyl azide, 10 uL in DMSO) was added via syringe, and the reactions were stirred at room temperature for 24 h under positive argon pressure.
as §1, with “E.” for “Whole cell reactions used E.”, “catalysts” for “catalysts, which”, “Coelho,” for “(Coelho,”, “μL” for “uL”, “pressure. Reactions were quenched in a manner identical to reactions containing purified enzymes as described above. For chiral HPLC, the reactions were extracted and purified in an identical manner as for reactions that employed purified enzymes. Lyophilized intact cells containing sucrose as a cryoprotectant were prepared as described elsewhere (Coelho, P. S. et al., Highly efficient carbene transfer to olefins catalyzed in vivo. Submitted (2013)). The resulting cell powder, containing expressed ABC-CIS (26 mg) were added along with a stir bar to a 2 mL crimp vial and then sealed. The headspace of the vial was degassed, oxygen quenching system (40 μL) was added via syringe, followed by degassed glucose (250 mM, 40 μL), M9-N (310 μL), and finally substrate (80 mM 1, 10 μL). Lyophilized cell reactions were stirred for 24 h at room temperature, then quenched and analyzed as described above. […]” for “pressure.”
The preparative reaction was scaled up proportionally from small-scale reactions. E. coli BL21 cells containing ABC-CIS (OD600 30, 90 mL in M9-N) were sparged with argon for 45 minutes in a round bottom flask (250 mL) containing a stir bar. Separately, glucose solution (250 mM, 11.6 mL) was sparged with argon in a conical flask. The oxygen quenching mixture (10×, 11.6 mL) was degassed in a conical flask that was placed under high vacuum until slight foaming occurred (1-2 s) and then back-filled with argon; this sequence was repeated several times. Sparged glucose solution was then added to the anaerobic cell suspension via syringe, followed by the oxygen quenching system. Finally, substrate 1 (80 mM, 2.9 mL DMSO) was added dropwise via syringe, and the reaction was stirred for 24 h at room temperature. To quench the reaction, dilute HCl (3 M, 8.7 mL) and acetonitrile (125 mL) were added. […]

[3] = Intramolecular carbene C—H insertion, substrate 4.1a; assay type: biochemical; conditions: 10 mM 4.1a, 10 uM P450, 10 mM Na2S2O4; product 4.2a
Procedure: Yield of product 4.22b was established after calibration with phenethyl alcohol as an internal standard. The reaction is not catalyzed by the WT-BM3 heme domain or hemin at 5% catalyst loading.
A representative procedure for P450-catalyzed C—H insertion is as follows: A vial containing WT-AxD (20 μL, 200 μM) was sealed with a teflon cap and the headspace of this vial was purged with argon for 5 min. Concurrently, a solution of sodium dithionite (11 mM in phosphate buffer pH=8) was degassed for a minimum of 5 min and 360 μL of this solution was transferred to the vial containing protein. The gas lines were disconnected from the vials. The substrate 4.1a or 4.1b was then added as a solution (20 μL, 200 mM). Final concentrations of all components were: 10 uM enzyme, 10 mM substrate, and 10 mM dithionite. […]
The mixture was extracted with 1 mL cyclohexane and analyzed by GC-MS or GC. GC-MS was performed on a Shimadzu TQ8030 GC-MS with ion count detector and J&W HP-5 column (30 m×0.32 mm, 0.25 μm film) using the following method: 90° C. (hold 2 min), 90-190° C. (20° C./min), and 190-230 (40° C./min)

[4] = OD600=30, 2 mM azide 1, 24 hours, anaerobic

Molecule | TTN ([1]; 0.1 mol % catalyst loading (2 μM), 2 mM azide 1, 2 mM NADPH, benzosultam 3) | % ee ([1]; 0.1 mol % catalyst loading, (S−R)/(S+R), benzosultam 3) | TTN (C—H amination product 3) ([1]; catalyst loading 0.5 mol %, NADPH, anaerobic) | Yield sulfonamide (%) [2, 4] | Yield sultam (%) [2, 4] | TTN ([2]; anaerobic, added glucose) | % ee ([2]; (S − R)/(S + R)) | Yield % [3]
ABC: P450BM3 variant: C400S (protein, listed as Bacillus megaterium, cytochrome P450NADPH-P-450 reductase precursor, cytochrome P450 (BM3), CYP102A1, P450BM3 variant: C400S) TIKEMPQPKTFGELKNLPLLNTDKPVQALMKIADELGEIFKFEAPGRVTRYLSSQRLIKEACDESRFDKNLSQALKFVRDFAGDGLFTSWTHEKNWKKAHNILLPSFSQQAMKGYHAMMVDIAVQLVQKWERLNADEHIEVPEDMTRLTLDTIGLCGFNYRFNSFYRDQPHPFITSMVRALDEAMNKLQRANPDDPAYDENKRQFQEDIKVMNDLVDKIIADRKASGEQSDDLLTHMLNGKDPETGEPLDDENIRYQIITFLIAGHETTSGLLSFALYFLVKNPHVLQKAAEEAARVLVDPVPSYKQVKQLKYVGMVLNEALRLWPTAPAFSLYAKEDTVLGGEYPLEKGDELMVLIPQLHRDKTIWGDDVEEFRPERFENPSAIPQHAFKPFGNGQRASIGQQFALHEATLVLGMMLKHFDFEDHTNYELDIKETLTLKPEGFVVKAKSKKIPLGGIPSPSTEQSAKKVRKKAENAHNTPLLVLYGSNMGTAEGTARDLADIAMSKGFAPQVATLDSHAGNLPREGAVLIVTASYNGHPPDNAKQFVDWLDQASADEVKGVRYSVFGCGDKNWATTYQKVPAFIDETLAAKGAENIADRGEADASDDFEGTYEEWREHMWSDVAAYFNLDIENSEDNKSTLSLQFVDSAADMPLAKMHGAFSTNVVASKELQQPGSARSTRHLEIELPKEASYQEGDHLGVIPRNYEGIVNRVTARFGLDASQQIRLEAEEEKLAHLPLAKTVSVEELLQYVELQDPVTRTQLRAMAAKTVCPPHKVELEALLEKQAYKEQVLAKRLTMLELLEKYPACEMKFSEFIALLPSIRPRYYSISSSPRVDEKQASITVSVVSGEAWSGYGEYKGIASNYLAELQEGDTITCFISTPQSEFTLPKDPETPLIMVGPGTGVAPFRGFVQARKQLKEQGQSLGEAHLYFGCRSPHEDYLYQEELENAQSEGIITLHTAFSRMPNQPKTYVQHVMEQDGKKLIELLDQGAHFYICGDGSQMAPAVEATLMKSYADVHQVSEADARLWLQQLEEKGRYAKDVWAG | 32 | 20% | 49 | 80% | 6.7% | 29 | 16% | 
WT-AxH: WT heme domain + C400H (protein, synthetic cytochrome P450-BM3 variant WT-AxH (heme), WT heme domain + C400H) TIKEMPQPKTFGELKNLPLLNTDKPVQALMKIADELGEIFKFEAPGRVTRYLSSQRLIKEACDESRFDKNLSQALKFVRDFAGDGLFTSWTHEKNWKKAHNILLPSFSQQAMKGYHAMMVDIAVQLVQKWERLNADEHIEVPEDMTRLTLDTIGLCGFNYRFNSFYRDQPHPFITSMVRALDEAMNKLQRANPDDPAYDENKRQFQEDIKVMNDLVDKIIADRKASGEQSDDLLTHMLNGKDPETGEPLDDENIRYQIITFLIAGHETTSGLLSFALYFLVKNPHVLQKAAEEAARVLVDPVPSYKQVKQLKYVGMVLNEALRLWPTAPAFSLYAKEDTVLGGEYPLEKGDELMVLIPQLHRDKTIWGDDVEEFRPERFENPSAIPQHAFKPFGNGQRAHIGQQFALHEATLVLGMMLKHFDFEDHTNYELDIKETLSLKPKGFVVKAKSKKIPLGGIPSPST |  |  |  |  |  |  |  | 0%
